Consider 125 sequences from the supplement of paper PMC9112550, “Optimization of the antimicrobial peptide Bac7 by deep mutational scanning” (BMC Biology, 2022).
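Note: peptides expressed intracellularly from a pBAD plasmid library in pooled LB shake-flask culture, induced with 0.3% L-arabinose, DNA abundance read by NGS, three biological replicates, DESeq2 with apeglm shrinkage.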

The data set relates to Escherichia coli TOP10. Description: shrunken log2 fold change of peptide-encoding DNA abundance (4.5 h post-induction vs induction); higher = less antimicrobial activity (less host growth inhibition). The following applies: time post-induction: 4.5 h; library: site-saturation at positions 5, 18, 19, 20.
Regarding RRIRTRPPRLPRPRPRPQVRPRP, the “shrunken log2 fold change” value is 0.0794. Consider RRIRWRPPRLPRPRPRPQGHPRP, for which the “shrunken log2 fold change” value stood at 0.0837. Turning to RRIRPRPPRLPRPRPRPMFVPRP, the “shrunken log2 fold change” value was -0.254. On to RRIRARPPRLPRPRPRPSGTPRP, for which the “shrunken log2 fold change” value was -0.0328.

RRIRHRPPRLPRPRPRPFWSPRP: the “shrunken log2 fold change” value was -0.0841. Next, RRIRGRPPRLPRPRPRPDQQPRP: 0.074; RRIRSRPPRLPRPRPRPVRVPRP: 0.743; RRIRIRPPRLPRPRPRPSIMPRP: -0.469. Next, RRIRTRPPRLPRPRPRPLEAPRP: 0.115.

With RRIRCRPPRLPRPRPRPAKFPRP, the “shrunken log2 fold change” value is 0.154.

As to RRIRCRPPRLPRPRPRPQEVPRP, the “shrunken log2 fold change” value was 0.144.

Turning to RRIRPRPPRLPRPRPRPRFDPRP, the “shrunken log2 fold change” value was 0.197.

For RRIRERPPRLPRPRPRPEDTPRP, the “shrunken log2 fold change” value was -0.343. Take RRIRRRPPRLPRPRPRPMWAPRP: the “shrunken log2 fold change” value turned out to be 0.161. Next, RRIRWRPPRLPRPRPRPVVFPRP: 0.0685; RRIRFRPPRLPRPRPRPGPNPRP: -0.0666; RRIRTRPPRLPRPRPRPTNQPRP: -0.067.

In the case of RRIRNRPPRLPRPRPRPANWPRP, the “shrunken log2 fold change” value was determined as 0.182.

Turning to RRIRNRPPRLPRPRPRPTSWPRP, the “shrunken log2 fold change” value is -0.228. In the case of RRIRFRPPRLPRPRPRPCRTPRP, the “shrunken log2 fold change” value came out at 0.048. Next, RRIRNRPPRLPRPRPRPSVMPRP: -0.281; RRIRCRPPRLPRPRPRPHPQPRP: 0.266; RRIRWRPPRLPRPRPRPTRAPRP: 0.909. As to RRIRVRPPRLPRPRPRPFHRPRP, the “shrunken log2 fold change” value was -0.0437. Next, RRIRTRPPRLPRPRPRPFKRPRP: 0.122; RRIRYRPPRLPRPRPRPSDYPRP: -1.34; RRIRTRPPRLPRPRPRPMISPRP: -0.0443. For RRIRFRPPRLPRPRPRPPVCPRP, the “shrunken log2 fold change” value is -0.0141. Next, RRIRERPPRLPRPRPRPAEFPRP: 0.00307; RRIRSRPPRLPRPRPRPQQQPRP: -0.0954. Next, RRIRQRPPRLPRPRPRPGLNPRP: -0.129; RRIRERPPRLPRPRPRPMCCPRP: -0.113; RRIRTRPPRLPRPRPRPPCPPRP: 0.15. Next, RRIRWRPPRLPRPRPRPCSDPRP: 0.273; RRIRSRPPRLPRPRPRPTVVPRP: -0.112; RRIRSRPPRLPRPRPRPSLVPRP: -0.345.

On to RRIRSRPPRLPRPRPRPKIFPRP, for which the “shrunken log2 fold change” value was -0.0746. Next, RRIRKRPPRLPRPRPRPRRCPRP: 0.444; RRIRKRPPRLPRPRPRPQPVPRP: 0.095; RRIRLRPPRLPRPRPRPYRAPRP: -0.21. RRIRPRPPRLPRPRPRPDMKPRP: the “shrunken log2 fold change” value was -0.417. For the sequence RRIRKRPPRLPRPRPRPNAPPRP, the “shrunken log2 fold change” value is 0.449.

For RRIRARPPRLPRPRPRPYHRPRP, the “shrunken log2 fold change” value was -0.047. Next, RRIRDRPPRLPRPRPRPWFIPRP: -0.157; RRIRWRPPRLPRPRPRPAIEPRP: -0.04; RRIRDRPPRLPRPRPRPHFQPRP: -0.236.

RRIRARPPRLPRPRPRPFHKPRP: the “shrunken log2 fold change” value was -0.148. Next, RRIRWRPPRLPRPRPRPWNAPRP: -0.176; RRIRERPPRLPRPRPRPEIDPRP: -0.00826; RRIRERPPRLPRPRPRPLKLPRP: -0.118. On to RRIRPRPPRLPRPRPRPCLDPRP, for which the “shrunken log2 fold change” value was -0.251. Next, RRIRWRPPRLPRPRPRPYLHPRP: -0.639; RRIRQRPPRLPRPRPRPNMVPRP: -0.0131.

Take RRIRLRPPRLPRPRPRPQKAPRP: the “shrunken log2 fold change” value is 0.000116. For RRIRRRPPRLPRPRPRPDLSPRP, the “shrunken log2 fold change” value was -0.0391. As to RRIRWRPPRLPRPRPRPDFEPRP, the “shrunken log2 fold change” value worked out at 0.385. Next, RRIRHRPPRLPRPRPRPPRFPRP: 0.578; RRIRPRPPRLPRPRPRPHQGPRP: -0.213; RRIRMRPPRLPRPRPRPPCPPRP: 0.564. Next, RRIRLRPPRLPRPRPRPPCPPRP: 0.316.

Regarding RRIRARPPRLPRPRPRPTEWPRP, the “shrunken log2 fold change” value amounted to 0.483. As to RRIRPRPPRLPRPRPRPPPNPRP, the “shrunken log2 fold change” value stood at 0.743. Next, RRIRSRPPRLPRPRPRPPQFPRP: -0.103; RRIRWRPPRLPRPRPRPNCHPRP: 0.0398. Next, RRIRVRPPRLPRPRPRPQNFPRP: -0.0453. Turning to RRIRKRPPRLPRPRPRPYRFPRP, the “shrunken log2 fold change” value was -0.244. Next, RRIRDRPPRLPRPRPRPTKLPRP: 0.0975; RRIRQRPPRLPRPRPRPCMHPRP: -0.0431; RRIRMRPPRLPRPRPRPMNEPRP: -0.101. Next, RRIRWRPPRLPRPRPRPQEGPRP: -0.00127; RRIRGRPPRLPRPRPRPKQNPRP: 0.853; RRIRERPPRLPRPRPRPFLNPRP: -0.0647.

As to RRIRNRPPRLPRPRPRPIPSPRP, the “shrunken log2 fold change” value stood at 0.0499. Next, RRIRPRPPRLPRPRPRPPNTPRP: 0.179. Next, RRIRQRPPRLPRPRPRPDGHPRP: -0.0936.

RRIRLRPPRLPRPRPRPGTSPRP: the “shrunken log2 fold change” value was -0.0167. As to RRIRDRPPRLPRPRPRPQFYPRP, the “shrunken log2 fold change” value was -0.129. As for RRIRQRPPRLPRPRPRPCPRPRP, the “shrunken log2 fold change” value was -0.01. Next, RRIRMRPPRLPRPRPRPKRDPRP: 1.15; RRIRLRPPRLPRPRPRPRTEPRP: 0.0352; RRIRERPPRLPRPRPRPNQIPRP: -0.293. Next, RRIRPRPPRLPRPRPRPMHMPRP: 0.0173; RRIRTRPPRLPRPRPRPNCYPRP: -0.836. Next, RRIRMRPPRLPRPRPRPYNKPRP: -0.561; RRIRQRPPRLPRPRPRPPIFPRP: 0.163; RRIRNRPPRLPRPRPRPLIDPRP: -0.0832. In the case of RRIRARPPRLPRPRPRPEGWPRP, the “shrunken log2 fold change” value came to 1.38. RRIRRRPPRLPRPRPRPPISPRP: the “shrunken log2 fold change” value is 0.0255. In the case of RRIRKRPPRLPRPRPRPTEHPRP, the “shrunken log2 fold change” value is 0.279. Next, RRIRLRPPRLPRPRPRPPQSPRP: 0.0818; RRIRYRPPRLPRPRPRPPCNPRP: -0.0594. Next, RRIRERPPRLPRPRPRPLTGPRP: -0.0199; RRIRFRPPRLPRPRPRPQWMPRP: -0.414. Next, RRIRGRPPRLPRPRPRPVRNPRP: 0.308; RRIRHRPPRLPRPRPRPNDLPRP: 0.0529. For the sequence RRIRIRPPRLPRPRPRPRNSPRP, the “shrunken log2 fold change” value worked out at 0.0503. Next, RRIRSRPPRLPRPRPRPFDDPRP: -0.0842.

For the sequence RRIRDRPPRLPRPRPRPADSPRP, the “shrunken log2 fold change” value is 0.157.

As to RRIRWRPPRLPRPRPRPYFVPRP, the “shrunken log2 fold change” value was -0.309. Next, RRIRRRPPRLPRPRPRPFLRPRP: 0.382. In the case of RRIRNRPPRLPRPRPRPWAFPRP, the “shrunken log2 fold change” value was -0.014.

In the case of RRIRRRPPRLPRPRPRPEKGPRP, the “shrunken log2 fold change” value is -0.0235. Next, RRIRHRPPRLPRPRPRPGCHPRP: -0.242; RRIRRRPPRLPRPRPRPKGHPRP: 0.127; RRIRTRPPRLPRPRPRPWLMPRP: -0.11. As to RRIRTRPPRLPRPRPRPHINPRP, the “shrunken log2 fold change” value was -0.454. RRIRQRPPRLPRPRPRPKSLPRP: the “shrunken log2 fold change” value is -0.0933.

Turning to RRIRERPPRLPRPRPRPTNEPRP, the “shrunken log2 fold change” value is -0.676.

Take RRIRIRPPRLPRPRPRPAYIPRP: the “shrunken log2 fold change” value was 0.011. Consider RRIRFRPPRLPRPRPRPTVEPRP, for which the “shrunken log2 fold change” value worked out at 0.0624. Next, RRIRERPPRLPRPRPRPYANPRP: 0.0234. For the sequence RRIRKRPPRLPRPRPRPWRRPRP, the “shrunken log2 fold change” value turned out to be 0.0332. Next, RRIRCRPPRLPRPRPRPWWTPRP: -0.383; RRIRMRPPRLPRPRPRPMQGPRP: 0.4. As to RRIRQRPPRLPRPRPRPYILPRP, the “shrunken log2 fold change” value is -0.773. Next, RRIRFRPPRLPRPRPRPGFIPRP: -0.257; RRIRMRPPRLPRPRPRPFMSPRP: 0.0642. Next, RRIRLRPPRLPRPRPRPSPVPRP: -0.186. Next, RRIRYRPPRLPRPRPRPVPSPRP: -0.404. Take RRIRPRPPRLPRPRPRPFTDPRP: the “shrunken log2 fold change” value is -0.247.

RRIRDRPPRLPRPRPRPAVYPRP: the “shrunken log2 fold change” value was -0.097.

On to RRIRLRPPRLPRPRPRPNHPPRP, for which the “shrunken log2 fold change” value is -0.498. As for RRIRLRPPRLPRPRPRPVELPRP, the “shrunken log2 fold change” value is 0.0718. Next, RRIRQRPPRLPRPRPRPNIEPRP: -0.0328; RRIRVRPPRLPRPRPRPQCLPRP: -0.0868.
